Laboratory results published in patent US20220031857A1 (OSSIANIX, published 2022).

Tests used:
[1] = biological target: T1, human serum albumin (human, UniProt P02768 25-609); assay: ELISA with Expi293 culture medium used directly, coated HSA, anti-Fc detection
T1 construct: Negative control protein; also called HSA
Experimental: (§1) FIG. 6. […] The VNAR-Fc fusion proteins were transiently expressed using Expi293 expression system. VNAR-Fc constructs contained signal peptide sequence in order to be secreted. Cell growth media was used directly in ELISA. HSA and mouse TfR2 were used as negative controls for unspecific binding. A clone in position 52 represents untransfected cells. Total Fc concentration was measured with capture and detection anti-Fc antibody pair using irrelevant VNAR-Fc at known concentration for standard curve.
(§2) The next day the plates were blocked with […] with 0.1% Tween20 (PBST) for 1 hour at room temperature. Transfected cells were spun down at 2000 rpm for 10 minutes and the collected supernatant was mixed with milk in PBST to a final 2.5% concentration and incubated for 30 minutes. 100 μl of blocked supernatant was transferred into coated plates and incubated for 1 hour. […] The plates were washed and developed with TMB detection solution before stopping the reaction with 1% HCl. Absorbance was measured at 450 nm. A VNAR-Fc at know concentration was used for standard curve to calculate VNAR-Fc expression level.

[2] = biological target: T2, recombinant mouse TfR2 (mouse, UniProt Q9JKX3 103-798, limits assumed); assay: ELISA with Expi293 culture medium used directly, coated mouse TfR2, anti-Fc detection
T2 construct: Negative control protein
T2 sequence (looked up): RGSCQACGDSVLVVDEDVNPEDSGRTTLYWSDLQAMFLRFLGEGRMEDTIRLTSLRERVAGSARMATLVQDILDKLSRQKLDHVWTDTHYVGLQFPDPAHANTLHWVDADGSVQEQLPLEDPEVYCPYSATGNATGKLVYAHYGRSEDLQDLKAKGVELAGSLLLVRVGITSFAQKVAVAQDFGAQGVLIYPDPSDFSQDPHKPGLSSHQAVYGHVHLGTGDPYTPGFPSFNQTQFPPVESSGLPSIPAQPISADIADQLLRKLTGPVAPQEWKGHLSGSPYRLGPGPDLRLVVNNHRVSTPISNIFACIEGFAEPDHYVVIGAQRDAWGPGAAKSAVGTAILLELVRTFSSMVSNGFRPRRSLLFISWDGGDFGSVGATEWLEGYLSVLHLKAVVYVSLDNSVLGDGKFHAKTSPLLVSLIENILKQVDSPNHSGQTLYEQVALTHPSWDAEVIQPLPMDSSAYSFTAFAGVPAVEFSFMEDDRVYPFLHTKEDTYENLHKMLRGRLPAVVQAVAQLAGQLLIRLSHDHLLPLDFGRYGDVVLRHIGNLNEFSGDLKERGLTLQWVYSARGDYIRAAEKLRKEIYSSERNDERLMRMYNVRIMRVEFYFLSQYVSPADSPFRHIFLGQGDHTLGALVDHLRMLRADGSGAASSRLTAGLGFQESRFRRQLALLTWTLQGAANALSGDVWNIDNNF
Experimental: as §1, §2

[3] = biological target: T3, recombinant human TfR1 (transferrin receptor 1) (human, UniProt P02786 89-760); assay: ELISA with Expi293 culture medium used directly, coated human TfR1, anti-Fc detection, absorbance at 450 nm
T3 construct: Bought recombinant His-tagged protein; also called hTfR1
Experimental: as §1, §2

T3 sequence (P02786 89-760 limits assumed): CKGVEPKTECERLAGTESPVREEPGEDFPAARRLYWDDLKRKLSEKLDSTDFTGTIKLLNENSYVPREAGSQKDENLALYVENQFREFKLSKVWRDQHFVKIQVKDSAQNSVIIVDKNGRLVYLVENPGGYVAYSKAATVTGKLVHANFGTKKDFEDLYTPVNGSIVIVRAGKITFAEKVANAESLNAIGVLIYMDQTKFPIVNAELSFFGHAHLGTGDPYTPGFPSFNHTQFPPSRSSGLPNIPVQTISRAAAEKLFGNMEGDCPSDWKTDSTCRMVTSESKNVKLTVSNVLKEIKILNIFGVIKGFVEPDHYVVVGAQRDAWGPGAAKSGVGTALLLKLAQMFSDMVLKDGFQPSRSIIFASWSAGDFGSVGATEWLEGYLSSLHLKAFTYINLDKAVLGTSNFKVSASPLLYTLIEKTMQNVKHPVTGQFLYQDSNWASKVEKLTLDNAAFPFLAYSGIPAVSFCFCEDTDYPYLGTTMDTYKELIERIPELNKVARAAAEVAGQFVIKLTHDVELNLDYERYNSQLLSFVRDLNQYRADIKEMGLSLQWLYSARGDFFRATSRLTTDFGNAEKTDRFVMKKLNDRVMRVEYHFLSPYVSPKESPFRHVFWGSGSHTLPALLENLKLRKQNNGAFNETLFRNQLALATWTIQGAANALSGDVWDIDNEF
T1 sequence (P02768 25-609 limits assumed): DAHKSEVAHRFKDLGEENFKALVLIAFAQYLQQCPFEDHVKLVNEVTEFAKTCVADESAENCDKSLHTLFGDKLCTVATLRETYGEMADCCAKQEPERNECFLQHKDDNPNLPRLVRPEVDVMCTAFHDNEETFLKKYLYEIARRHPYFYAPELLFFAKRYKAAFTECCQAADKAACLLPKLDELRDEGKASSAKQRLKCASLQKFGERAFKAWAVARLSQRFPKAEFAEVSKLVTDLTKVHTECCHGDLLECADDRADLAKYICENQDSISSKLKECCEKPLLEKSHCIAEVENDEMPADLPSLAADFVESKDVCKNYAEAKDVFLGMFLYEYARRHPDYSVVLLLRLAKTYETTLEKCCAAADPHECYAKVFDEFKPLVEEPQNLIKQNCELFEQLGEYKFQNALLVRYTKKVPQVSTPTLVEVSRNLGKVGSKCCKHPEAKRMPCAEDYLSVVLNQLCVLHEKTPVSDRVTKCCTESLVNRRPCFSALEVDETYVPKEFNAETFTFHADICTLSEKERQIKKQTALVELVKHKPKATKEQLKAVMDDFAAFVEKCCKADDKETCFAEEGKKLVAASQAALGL

B1: Clone 11 VNAR-Fc fusion protein (Fc fusion)
chain: ARVDQTPQTITKETGESLTINCVLRDSNCALPSTHWYRKKSGSTNEESISKGGRYVETVNSGSKSFSLRINDLTVEDSGTYRCKVLNFFTHTCVQVQKYDVYGGGTAVTVNA
notes: Bivalent VNAR-Fc; not shown: glycine/serine linker (GxSx)n extending the hinge; human IgG1 Fc (hinge, CH2, CH3) of pFUSE-hIgG1e3-Fc2; G236 also deleted
binding result [1]: no binding
binding result [2]: no binding
binding result [3]: binds
